The values below come from US10202593B2, “Evolved sortases and uses thereof” (President and Fellows of Harvard College, priority 2013, dated 2019).

The test system of data set [1] is LPETG (Abz-LPETGK(Dnp)-CONH2). Put plainly: In vitro sortase kinetics HPLC assay, LPETG substrate. Format: biochemical. The conditions noted are these: substrate wt (LPETG). As to the method:
(§1) See below for details on sortase expression and purification, and on the synthesis of Abz-LPETGK(Dnp)-CONH2 (SEQ ID NO: 19). […] Reactions were initiated with the addition of enzyme and incubated at 22.5° C. for 3 to 20 minutes before quenching with 0.5 volumes of 1 M HCl. Five to ten nmol of peptide from the quenched reactions were injected onto an analytical reverse-phase Eclipse XDB-C18 HPLC column (4.6×150 mm, 5 μm, Agilent Technologies) and chromatographed using a gradient of 10 to 65% acetonitrile with 0.1% TFA in 0.1% aqueous TFA over 13 minutes. Retention times under these conditions for the Abz-LPETGK(Dnp)-CONH2 (SEQ ID NO: 19) substrate, the released GKDnp peptide, and the Abz-LPETGGG-COOH (SEQ ID NO: 20) product were 12.8, 10.4, and 9.1 min, respectively. To calculate the percent conversion, the ratio of the integrated areas of the Abz-LPETGGG-COOH (SEQ ID NO: 20) and Abz-LPETGK(Dnp)-CONH2 (SEQ ID NO: 19) peptide Abs220 peaks was compared to a standard curve generated by mixing the product and starting peptide in known ratios. To determine […] and Km, reaction rates were fit to the Michaelis-Menten equation using OriginPro 7.0 software. All kinetics values reported represent the average of at least three measurements. Percent conversion was also calculated by using the ratio of the integrated areas of the GK(Dnp)-CONH2 and Abz-LPETGK(Dnp)-CONH2 peptide Abs355 peaks were compared directly (Example 5). To determine kcat and Km, LPETG, reaction rates were fit to the Michaelis-Menten equation using Microsoft Excel using the Solver add-in. To determine Km,GGG and KH, reaction rates were fit to the modified Michaelis-Menten, for which KH is as defined when KH<<Km,GGG.
(§2) Assays to determine eSrtA, eSrtA(2A-9) and eSrtA(4S-9) specificity were performed by preparing 10 μM stocks of Abz-LXEXGK(Dnp) (SEQ ID NO: 75) peptides in 300 mM Tris pH 7.5, 150 mM NaCl, 5 mM CaCl2, 5% v/v DMSO, and 100 mM Gly-Gly-Gly-COOH (GGG). Reactions were performed by adding eSrtA(2A-9) to a final concentration of 450 nM, eSrtA(4S-9) to a final concentration of 115 nM or eSrtA to a final concentration of 47.5 nM and a final volume of 100 μL, then incubating at 22.5° C. for 15 minutes. Reactions were quenched by the addition of 0.2 volumes of 5 M HCl, then were injected onto an analytical reverse-phase Eclipse XDB-C18 HPLC column (4.6×150 mm, 5 μm, Agilent Technologies) and chromatographed using a gradient of 10 to 65% acetonitrile with 0.1% TFA in 0.1% aqueous TFA over 13 minutes. Retention times under these conditions for the Abz-LPETGK(Dnp)-CONH2 (SEQ ID NO: 19) substrate, the released GKDnp peptide, and the Abz-LPETGGG-COOH (SEQ ID NO: 20) product were 12.8, 10.4, and 9.1 min, respectively, while the remaining Abz-LXEXGK(Dnp)-CONH2 (SEQ ID NO: 74) substrates varied in retention time between 9 and 13 minutes. To calculate the percent conversion, the ratio of the integrated areas of the GK(Dnp)-CONH2 and Abz-LPETGK(Dnp)-CONH2 (SEQ ID NO: 19) peptide Abs355 peaks were compared directly. Subsequent determination of kcat/Km and KH were performed as described for in vitro SrtA characterization.
(§3) In each case, rate constants were determined by measuring enzyme velocity at eight different substrate concentrations by HPLC assay, then fit using nonlinear regression to the Michaelis-Menten equation, yielding kcat and Km. KH was calculated by measuring enzyme velocity at 1 mM target substrate and eight different GGG concentrations by HPLC assay, then fitting the resulting curves using nonlinear regression to the modified Michaelis-Menten equation.

Data set [2] deals with LAETG (Abz-LAETGK(Dnp)-CONH2). Put plainly: In vitro sortase kinetics HPLC assay, LAETG substrate. The conditions noted are these: for Specificity (relative catalytic efficiency, fold): ratio of kcat/KM between 2A (LAETG) and wt (LPETG). In kind it is biochemical. On the procedure:
as §1, §2, §3

The mark [3] stands for this setting: Example 5 variants, read-out: Avg KM.
[4] abbreviates: Example 5 variants, substrate 2A (LAETG).
The mark [5] stands for this setting: Example 5 variants, substrate 2A (LAETG), read-out: Avg KM.
Where [6] appears, read: GGG varied, substrate 2A (LAETG).
Where [7] appears, read: substrate 2A (LAETG), read-out: Km, LxExG.

Where two headings read alike, the source gives them in different places.

B1: eSrtA(2A-3): round 3 LAETG clone: eSrtA + K84R F122S D124G K134R K145E K162R V168I K177R I182F (protein)
chain: QAKPQIPKDKSKVAGYIEIPDADIREPVYPGPATREQLNRGVSFAEENESLDDQNISIAGHTSIGRPNYQFTNLRAAKKGSMVYFEVGNETRKYKMTSIRNVRPTAVEILDEQKGKDRQLTLFTCDDYNEETGVWETRKIFVATEVK
The Km is the substrate concentration at which the rate is half of its maximum. Consider B1, for which the “Avg kcat (Hz)” value in data set [1] (Example 5 variants) was 2.653 Hz; in data set [2] (setting [4]), 1.117 Hz. For the same molecule, the Km in data set [1] (setting [3]) was 2.1 mM; in data set [2] (setting [5]), 1.62 mM. The “preference for LPETG over LAETG” value in data set [2] (ratio of kcat/KM) is on record as 1.4 fold. The “Specificity (relative catalytic efficiency, fold)” value in data set [2] stood at 1.436 fold. For the same molecule, the reduced catalytic efficiency in data set [2] (round 3 clone, LAETG target) is above 10 fold.

B2: eSrtA(2A-6): round 6 consensus variant targeting LAETG; kinetics close to 2A.6A (protein)
chain: QAKPQIPKDKSKVAGYIEIPDADIKEPVYPGPATREQLNRGVSFHEENESLDDQNISIAGHTFIDRPNYQFTNLKAAKVGSMVYFKVGNETRKYKMTSIRNVRPTAVEVLDEQKGKDKQLTLVTCDDYNEETGVWETRKIFVATEVK
For the molecule B2, the figures for the “Avg kcat (Hz)” value in data set [1] (Example 5 variants), in data set [2] (setting [4]) and in data set [2] (setting [6]) were 0.1622 Hz, 2.579 Hz and 1.734 Hz, respectively. For the same molecule, the Km in data set [1] (setting [3]) was 3.4 mM; in data set [2] (setting [5]) it was 0.665 mM; in data set [2] (KM for GGG, substrate 2A (LAETG), read-out: Avg KM) it was 1.11 mM. Also, the KH in data set [2] (GGG concentration at which hydrolysis and transpeptidation rates are equal, 2A (LAETG) variant) came to 149 ± 63 µM. Also, the “Avg kHydro (Hz)” value in data set [2] (setting [6]) came to 0.2347 Hz. Besides, the “Specificity (relative catalytic efficiency, fold)” value in data set [2] turned out to be 82.4 fold. Further, the “Avg KH” value in data set [2] (substrate 2A (LAETG)) amounted to 148.9406 µM.

B3: 2A.6A: 5mut + A104H K138V K162R I182V (protein)
chain: QAKPQIPKDKSKVAGYIEIPDADIKEPVYPGPATREQLNRGVSFHEENESLDDQNISIAGHTFIDRPNYQFTNLKAAKVGSMVYFKVGNETRKYKMTSIRNVRPTAVEVLDEQKGKDKQLTLVTCDDYNEETGVWETRKIFVATEVK
Turning to B3, the “kcat, 10 mM GGG (Hz)” value in data set [1] amounted to 0.1572 Hz; in data set [2] (substrate 2A (LAETG)), 2.47 Hz. Besides, the Michaelis constant (Km) in data set [1] (read-out: Km, LxExG) came to 3.29 mM; in data set [2] (1 mM 2A (LAETG) substrate, read-out: Km, GGG), 1.04 mM; in data set [2] (setting [7]) it was 0.608 mM. For the same molecule, in data set [2] (1 mM 2A (LAETG) substrate), the “Khydrolysis” value is 135.8 µM. Also, the “kcat, 1 mM LxExG (Hz)” value in data set [2] (1 mM 2A (LAETG) substrate, GGG varied) came out at 1.714 Hz. Besides, the “specificity (relative cat. Efficiency, fold)” value in data set [2] (ratio of kcat/Km between 2A (LAETG) and wt (LPETG) substrates, favoured over disfavoured) stood at 86.36 fold. In data set [2] (substrate 2A (LAETG)), the kL/KL/KH turned out to be 3.04E+07. Further, the “kHydrolysis (Hz)” value in data set [2] (substrate 2A (LAETG), 1 mM, GGG varied) is reported as 0.2252 Hz.

B4: eSrtA(2A-3.5) (protein)
chain: QAKPQIPKDKSKVAGYIEIPDADIKEPVYPGPATREQLNRGVSFAEENESLDDQNISIAGHTFIDRPNYQFTNLKAAKKGSMVYFKVGNETRKYKMTSIRNVRPTAVEILDEQKGKDKQLTLFTCDDYNEETGVWETRKIFVATEVK
For the molecule B4, the “Avg kcat (Hz)” value was 1.525 Hz in data set [1] (Example 5 variants) and 1.14 Hz in data set [2] (setting [4]). Further, the Michaelis-Menten constant (Km) worked out at 3.75 mM in data set [1] (setting [3]); 4.11 mM in data set [1] (read-out: Km, LxExG); 6.37 mM in data set [2] (setting [5]); 7.16 mM in data set [2] (setting [7]). The “kcat, 10 mM GGG (Hz)” value was 1.587 Hz in data set [1] and 1.249 Hz in data set [2] (substrate 2A (LAETG)). Moreover, in data set [2] (minimal mutant, LPETG and LAETG processed), the “lower activity than that of eSrtA on its native LPETG substrate” value is on record as around 100 fold. In data set [2], the “Specificity (relative catalytic efficiency, fold)” value is 2.252 fold.
